Source: patent US12246067 (BIONTECH US, dated 2025)

What was measured:
[1] = target: T1, HLA-A03.01 (human); test: peptide-HLA class I complex stability, method not described
T1 construct: The assay format and the HLA construct are not described

[2] = target: T2, HLA-A11.01 (human); test: as above
T2 construct: The assay format and the HLA construct are not described

[3] = target: T3, HLA-A02:01 (human); test: measured peptide-HLA affinity; method not detailed
T3 construct: only the allele is given; also called HLA-A02:01 allele protein

[4] = target: T3, HLA-A02:01; test: measured peptide-HLA complex stability; method not detailed

| Binder | Measured stability [1] [h] | Measured stability [2] [h] | Measured Affinity [3] [nM] | Measured stability [4] [h] |
| --- | --- | --- | --- | --- |
| VVVGADGVGK [KRAS, G12D peptide VVVGADGVGK] | 2.3 | 13 |  |  |
| VVVGAVGVGK [KRAS, G12V peptide VVVGAVGVGK] | 6.7 | 24.3 |  |  |
| FLVVVGACGV [KRAS G12C affinity-enhanced peptide FLVVVGACGV] |  |  | 4.2 | 7.4 |
| YLVVVGACGV [KRAS G12C affinity-enhanced peptide YLVVVGACGV] |  |  | 3.9 | 9.3 |
| FMVVVGACGL [KRAS G12C affinity-enhanced peptide FMVVVGACGL] |  |  | 85.3 | 0.9 |
| YMVVVGACGV [KRAS G12C affinity-enhanced peptide YMVVVGACGV] |  |  | 7 | 6.4 |
| FMVVVGACGI [KRAS G12C affinity-enhanced peptide FMVVVGACGI] |  |  | 17 | 1 |
| FLVVVGACGL [KRAS G12C affinity-enhanced peptide FLVVVGACGL] |  |  | 69.4 | 1.4 |
| KMVVVGACGV [KRAS G12C affinity-enhanced peptide KMVVVGACGV] |  |  | 11.9 | 3.8 |
| MMVVVGACGV [KRAS G12C affinity-enhanced peptide MMVVVGACGV] |  |  | 18.9 | 2.1 |
| FMVVVGACGV [KRAS G12C affinity-enhanced peptide FMVVVGACGV] |  |  | 1.1 | 5.4 |
| MLVVVGACGV [KRAS G12C affinity-enhanced peptide MLVVVGACGV] |  |  | 18.2 | 1.7 |
| FLVVVGACGI [KRAS G12C affinity-enhanced peptide FLVVVGACGI] |  |  | 27.8 | 1.4 |
| VVGACGVGK [KRAS, G12C peptide VVGACGVGK] | 5 | 10 |  |  |
| VVGADGVGK [KRAS, G12D peptide VVGADGVGK] |  | 3.4 |  |  |
